According to patent publication US20090202520A1:

Biological target: serum amyloid P (SAP) (human), P02743
Assay: SPR (Biacore X100), SAP on CM5 chip, soluble receptor flowed, single cycle kinetics, KD = Kd/Ka
Settings: remark: other sources report otherwise

Chain of serum amyloid P (SAP) (human), P02743 (P02743 20-223): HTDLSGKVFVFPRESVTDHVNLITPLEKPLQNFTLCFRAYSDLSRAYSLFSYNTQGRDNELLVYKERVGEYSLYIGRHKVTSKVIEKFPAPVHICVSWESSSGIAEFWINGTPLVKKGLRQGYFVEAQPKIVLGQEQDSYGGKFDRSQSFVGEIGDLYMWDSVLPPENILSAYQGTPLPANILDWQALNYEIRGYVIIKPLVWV

Kd: 0.4 nM
B1: soluble recombinant FcγRIIIB (sFcγRIIIB), O75015 17-200 (receptor, UniProt O75015 17-200, looked up, not shown: small tags and cut ends)
chain: GMRTEDLPKAVVFLEPQWYSVLEKDSVTLKCQGAYSPEDNSTQWFHNENLISSQASSYFIDAATVNDSGEYRCQTNLSTLSDPVQLEVHIGWLLLQAPRWVFKEEDPIHLRCHSWKNTALHKVTYLQNGKDRKYFHHNSDFHIPKATLKDSGSYFCRGLVGSKNVSSETVNITITQGLAVSTIS
